The numbers were not newly measured in US20170022546, which cites them from elsewhere.

A word on the Kd: it is the free concentration of one partner at which half of the binding sites on the other are occupied at equilibrium, for simple one-to-one binding.

In the data set the target is T1, KZF (Kaiso zinc finger domain, three C2H2 fingers) (UniProt Q86T24).
T1 sequence: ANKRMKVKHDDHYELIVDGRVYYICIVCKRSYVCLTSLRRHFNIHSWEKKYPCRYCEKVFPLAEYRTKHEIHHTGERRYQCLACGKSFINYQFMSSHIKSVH
Conditions: 5mC; CITED ref 45; 1:1 complex.

“consecutive methylated CpG target (literature)”: the Kd was 0.21 nM.
